# Laboratory results taken from the DeepSol protein solubility set.
# Assay: soluble on expression in E. coli; label from the status in PepcDB or PDB records
row,Sequence,soluble on expression in E. coli
1,MAHHHHHHMGDDCETELVEVFGFISSGREDVRKMAVQGLAQQSKDNKELFALIASSAHGPRCIDVLLQFLHAGSVALLGDVLTVLINCAADGTCTEVLVTQKVVRRAMRLIDSVEASDHPQSLQRGLEEMTLMLLSNLTASHVSAVDDLLQVTDEDLRGFYLGKLLTYYTRFTVDDGCSVEVAVAGEQQQEDGGDDNKKLSEGDAVRSNSGGNKSEELNKTVPRDLQRWILQILLNVTRVADGQELLLEDDDWLMALSDCLSSLNPRHRLLAAQCFRNCSFQRERHPGILRSRCLRVCVERLSDGAEHIGEIEMLLAEITANLMQTEAGIGLLEELNAKKHLQASVTAGKVQADTCKFLNEHVLPLLDDIVDAYVMTSGDELD,not soluble
2,MGHPPLLPLLLLLHTCVPASWGLRCMQCKTNGDCRVEECALGQDLCRTTIVRLWEEGEELELVEKSCTHSEKTNRTLSYRTGLKITSLTEVVCGLDLCNQGNSGRAVTYSRSRYLECISCGSSDMSCERGRHQSLQCRSPEEQCLDVVTHWIQEGEEGRPKDDRHLRGCGYLPGCPGSNGFHNNDTFHFLKCCNTTKCNEGPILELENLPQNGRQCYSCKGNSTHGCSSEETFLIDCRGPMNQCLVATGTHEPKNQSYMVRGCATASMCQHAHLGDAFSMNHIDVSCCTKSGCNHPDLDVQYRSGAAPQPGPAHLSLTITLLMTARLWGGTLLWT,not soluble
3,MRRNIRVTLGAATIVAALGLSGCSHPEFKRSSPPAPSLPPVTSSPLEAAPITPLPAPEALIDVLSRLADPAVPGTNKVQLIEGATPENAAALDRFTTALRDGSYLPMTFAANDIAWSDNKPSDVMATVVVTTAHPDNREFTFPMEFVSFKGGWQLSRQTAEMLLAMGNSPDSTPSATSPAPAPSPTPPG,soluble
4,MSLAITTSPPTVSDTKRIFYANYKKLLLPLYNTPIQNMLVKQHIHRYNKNYTYSDVSALGIVTTLDSVLNTFPDDEKTSIKNAFIISLNEDPEMYYSNIESLKPYAKSSHLGPNKHGNTLQKSLYDIAINDKYVYSSFAAVGIFKLLQMNGNYTGNSVKHLSESIGFKGELVHKDIATFFSLLKYIESSQKLADDIREESLKREGHHHHHH,soluble
5,GPGSMEDPVRCECQKHAQDDGYSQGELLPLTAFRQVEKRYKLYRYDRRTSRRLQVPETDFSDVVDFRNLEANTAANLACISTRECHEDDRLVKCCTFAGVPGMEVFPNFLTDAEQQEFCRAALLEYGDSRRHPNHLSTHASEPRETTRYEPPMRWATVGFSYQWSSKSYCKEKYSHFPRRLRKCVERIARLCNVSQPYEPQTSIVNYFPVGAMMMAHQDVSEEVLQQPLISISLGCSCVFLMGTESRDDTPCAFWLRSGDVIVVSGASRTAYHGVPRIMDDCPQYLCPQNETEEEEGEFYWREQMRHLRVNINVRQVYPDRCEFLNE,not soluble
6,SKIFDFVKPGVITGDDVQKVFQVAKENNFALPAVNCVGTDSINAVLETAAKVKAPVIVQFSNGGASFIAGKGVKSDVPQGAAILGAISGAHHVHQMAEHYGVPVILHTDHCAKKLLPWIDGLLDAGEKHFAATGKPLFSSHMIDLSEESLQENIEICSKYLERMSKIGMTLEIELGCTGGEEDGVDNSHMDASALYTQPEDVDYAYTELSKISPRFTIAASFGNVHGVYKAGNVVLTPTILRDSQEYVSKKHNLPHNSLNFVFHGGSGSTAQEIKDSVSYGVVKMNIDTDTQWATWEGVLNYYKANEAYLQGQLGNPKGEDQPNKKYYDPRVWLRAGQTSMIARLEKAFQELNAIDVL,soluble
7,MNRLERIIQLVSQKKKIDVNSLSEQLDVSKVTIRKDLDKLESKGLLRREHGYAVLNSGDDLNVRLSYNYNIKRRIAEKAAELVQDNDTIMIESGSTCALLAEVLCQTKRNIKVITNSCFIANYIRQYSSCQIILLGGYYQPNSEVTVGPLLKEMISLFHVNRVFVGTDGFNKDLGFMGKDMMRSEGVRYMADAAEEVVILTDSSKFSKTSLVHQLSLADVNRVITDQALDKQTQELLSASGLVLDFVSLEHHHHHH,not soluble
8,MALMTNKTRALLIGGHGKVALLATPMLIDASVQVTSMYRNPDHRSEIEALGATTLERDVTTLSVEDWADLLKDFDVVVWSAGNGGKNGADATYAIDRDAAIASIDGAASLGEKAPRYIMVSYIGSSTHTIDPSASFYPYAESKKAADEHLSSTNLDYLILAPAALTLDEVNGVEVIADTNEAAAGRTTSRVLVAEVITEFVVRDFPQTRVLPFVDGESPLEHHHHHH,soluble
9,TSPTTTSTGTGTGSSTDQAISPLVEGENAPEVTTAKLGFIALTDAAPLIIAKEKGFYAKYGMPDVEVLKQASWGTTRDNLVLGSASGGIDGAHILTPMPYLITMGTVTDGKPTPMYILARLNVNGQGIQLGNNYKDLKVGTDAAPLKEAFAKVTDPKVAMTFPGGTHDMWIRYWLAAGGMEPGKDFSTIVVPPAQMVANVKVNAMESFCVGEPWPLQTVNQGVGYQALTTGQLWKDHPEKAFGMRADWVDQNPKAAKALLMAVMEAQQWCDQAENKEEMCQILSKREWFKVPFEDIIDRSKGIYNFGNGQETFEDQEIMQKYWVDNASYPYKSHDQWFLTENIRWGYLPASTDTKAIVDKVNREDLWREAAQALEVPADQIPSSPSRGIETFFDGITFDPENPQAYLDSLKIKSIKA,soluble
10,GMSIYNSIGKQYSQTRVPDIRIVNAIINLLNLPKGSVIADIGAGTGGYSVALANQGLFVYAVEPSIVMRQQAVVHPQVEWFTGYAENLALPDKSVDGVISILAIHHFSHLEKSFQEMQRIIRDGTIVLLTFDIRLAQRIWLYDYFPFLWEDALRFLPLDEQINLLQENTKRRVEAIPFLLPHDLSDLFAAAAWRRPELYLKAEVRAGISSFALANQDLVEKGLELLTADLNNGEWIRKYGEIHHLQEIDIGYRFIYTTLDK,soluble
11,NPAIAMTEKEIKEYGFPFDARFCSLPLVHADDLKQIFGRYASEVCCRYLRPFDSDYYTLATKNFYQTDIAALDPTAVVGGEDTIRGLMRVATEVCFVIESGKPGAFHPRIHFEKSFRYAHLSLEEKKAWQRLSDDYFHKRNDDLWKQEALSRLIPLLSSTDMLVCVEDLGMIPPAVPVVMEQLQLLSLILERISKEPGQDFADMSRQPYCSVCTTSTHDMAPLRLWWQENELPRRHYYSMILGEKGTAPETCTPETARRILRQHLLSTSMLAIFPLADWLSLSGELQGIVAPEDEQINKPEISDHYWRYRMPISIESLSEDYRELNESIASLIRTSGRG,not soluble
12,MSLDWFTVDDSVLRVALVFPLQGSAGIFGPTCELCARLAAEEVNRAGGVLGKELRLLPVDGGAPPREIADRVAALVDLGVVQGVTGWHISSVRQALAPRIAHRVPYVYTALYEGGEHTAGVFLTSETPRDQLRPAMRLLARERGVRRWFVIGNDYVWPRRTARAAHSYARECGGSIGGEVYLPLGTHDFEPVLRRIERSDADAVLMLLVGSDAVRFNRAFAAAGLDGRCLRLSTLMDENMLLASGPAATADLYSTAGFFASLANQDTLDFHGRYAARYGVEAPALGSLGESCYEGVLLLAALIGRAGTLEVSAIGAAADTVSYEGPRGLLRLRGGHVRQRIYLARADGLDFDVVAELDLHSSRPEGHHHHHH,not soluble
13,MAHHHHHHMANSRASTLAAAAAAASTAAVKPLSYVSLRSHDGKHVILPVAAAAGSRVLHGIFQGLYVMRLHQCNSPADQPPHAQHEQYPMVEEDAQQGELHIPRSGSSSSSGSDVANKAHGSAEVKVDDPIPIIEDEDDIEEDEARHQVNGAAYRSYAAVFPSNVACVPPPPSPLLSTSPPAAPSPCVPPLLEVPICSLEFSTLMRVAEFLVVKITLASHPHYLHEANVFGDLDRTSERDQLVAMQVLLGADFLNC,not soluble
14,MPAIEVGRICVKVKGREAGSKCVIVDIIDDNFVLVTGPKDITGVKRRRVNILHLEPTDKKIDIQKGASDEEVKKKLEESNLTEYMKEKIKIRMPTL,soluble
15,ETDETLGEREIRRVLARSGEEGNIDASEVDMIERVFDLDDTVVREVMVPRPDVVSVPADATMSDIRAVVLDEGHTRYPVVDADDSDQIVGFIDVKDVLRAGEEGNENTTAGDIAHEIPVVPETTAINDLLLQFRQDRRQMAAVIDEWGSLEGIATIEDVVEAVVGDLRDEFDVDGREHAIRKQSDGSYDADGGV,not soluble
16,MSLFIDKQTVERHFSKSAHLYDGVNHVQRKMAHRLVQLLDEKRRDAKDEPRAILDIGCGTGWLTRECLKSFPQATIDAVDLSKQMLEVAEKNVSSHPNVQFIQGDIEKMVREKPSAKTYDVIVANAVFQWLDKPTETVAQLRSWLKPNGLLLFSTFGPDTFYELHDSFQLAAKQLGIIDERRGLDYLSKTEWKRTLDGLFAELTIHEEKAIESYATVEQFLHTVKKMGATYSQSSRPLSKRYYQLMKEIYEQRYRTEDSIPATYDCLYVLCQAEGHHHHHH,soluble
17,MSNSSAHSSFGTSNDSFSSVQSVILPPVGPFGQKKRTFEYIGVTLVVDKLKLAEWMNGIGKLFGSAELRDNVTNLHMQLVPVIDTLKKVSHLSSEKTKKEIMTLIEEYKTLVVVCENMLDRMEKSADFHSTDMLNDPVLEKQE,not soluble
18,MANLEKKRVVVTGLGAITPIGNTLQDYWQGLMEGRNGIGPITRFDASDQACRFGGEVKDFDATQFLDRKEAKRMDRFCHFAVCASQQAINDAKLVINELNADEIGVLIGTGIGGLKVLEDQQTILLDKGPSRCSPFMIPMMIANMASGLTAINLGAKGPNNCTVTACAAGSNAIGDAFRLVQNGYAKAMICGGTEAAITPLSYAGFASARALSFRNDDPLHASRPFDKDRDGFVMGEGSGILILEELESALARGAKIYGEMVGYAMTCDAYHITAPVPDGRGATRAIAWALKDSGLKPEMVSYINAHGTSTPANDVTETRAIKQALGNHAYNIAVSSTKSMTGHLLGGSGGIEAVATVMAIAEDKVPPTINLENPDPECDLDYVPGQSRALIVDVALSNSFGFGGHNVTLAFKKYQ,soluble
19,MAKTLDSPGVLVVDFGGQYAHLIARRIRELGVYSEIVPATSLDALGEALPRAAGVVLSGGPGSVWGSRHDEAAAMVLQLGKPVLGICYGHQLLAKVLGGEVGRSPLPEFGPTEVEVLDYGILLNGLPSRFKVWMSHYDAVLRPPGEAKVLARTPGSPVAAMELWGRVFGVQWHPEVRHTQYGREVLDNWLSLVGAPRTWRPGDMVSELVESVKKEVGDALAVAAVSGGVDSTVAALIAKKAIGSRLYPVFIDHGLHPEGEVERVVKLLSRLGLEPVMVDAGEEFLAALEGVGDPEEKRRVVGRVYAEVLERAARDIGAEYLVQGTIYPDVIESGARPGADTIKTHHNVGGLPKDMRLKLVEPLRYFYKDEVRLLAEKLGVPRELIWKQPVPGPGLAVRVEGPITREKLRIVRRADAIVREEVEAAGLGGKLWQYFAVLTASMATGVRGDSRSYGYVVAVRAVESVDAMTAKPAELPWWLLERIARRITSEIPEVVRVVYDITSKPPSTIEWE,soluble
20,MQKHWWHKATVYQIYPKSFMDTNGDGIGDLKGITSKLDYLQKLGVMAIWLSPVYDSPMDDNGYDIANYEAIADIFGNMADMDNLLTQAKMRGIKIIMDLVVNHTSDEHAWFIEAREHPDSSERDYYIWCDQPNDLESIFGGSAWQYDDKSDQYYLHFFSKKQPDLNWENANLRQKIYDMMNFWIDKGIGGFRMDVIDMIGKIPAQHIVSNGPKLHAYLKEMNAASFGQHDLLTVGETWGATPEIAKQYSNPVNHELSMVFQFEHIGLQHKPEAPKWDYVKELNVPALKTIFNKWQTELELGQGWNSLFWNNHDLPRVLSIWGNTGKYREKSAKALAILLHLMRGTPYIYQGEEIGMTNYPFKDLNELDDIESLNYAKEAFTNGKSMETIMDSIRMIGRDNARTPMQWDASQNAGFSTADKTWLPVNPNYKDINVQAALKNSNSIFYTYQQLIQLRKENDWLVDADFELLPTADKVFAYLRKVREERYLIVVNVSDQEEVLEIDVDKQETLISNTNESAALANHKLQPWDAFCIKILEHHHHHH,soluble
